Drawing on US20250297007A1 (published 2025), this text covers Kd for four molecules.

Changes are numbered by the printed parent chain.

T1: recombinant protein TCRVB 6-5 (human, biotinylated (captured on a Biotin CAP chip); site not stated)
T1 construct: also called TCRVβ 6-5; TCRβ V6-5*01
T1 TCR beta: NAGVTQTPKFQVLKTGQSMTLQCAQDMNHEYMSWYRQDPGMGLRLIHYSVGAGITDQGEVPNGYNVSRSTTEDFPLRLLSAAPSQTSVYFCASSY

B1: A-H.52 (scFv)
scFv: QVQLVQSGAEVKKPGSSVKVSCKASGYSFTLGYIHWVRQAPGQGLEWMGWFFPGSGNIKYNEKFKGRVTITADTSTSTAYMELSSLRSEDTAVYYCAGSYYSYDVLDYWGQGTTVTVSSGGGGSGGGGSGGGGSGGGGSDIQMTQSPSFLSASVGDRVTITCKASQNVGINVVWHQQKPGKAPKALIYSSSHRYSGVPSRFSGSGSGTEFTLTISSLQPEDFATYFCQQFKSYPLTFGQGTKLEIK
notes: Phage clone, stated to be a monovalent scFv with two mutations in CDRH1; also called Antibody A-H.52
B2: A-H.53 (scFv)
scFv: B1 scFv with T30R, G32T
notes: Phage clone; also called Antibody A-H.53
B3: A-H.54 (scFv)
scFv: B1 scFv with T30H, L31N, G32W
notes: Phage clone; also called Antibody A-H.54
B4: BJM0277 (antibody, V domains shown)
VH: QVQLVQSGAEVKKPGSSVKVSCKASGYSFTTYYIHWVRQAPGQGLEWMGWFFPGSGNIKYNEKFKGRVTITADTSTSTAYMELSSLRSEDTAVYYCAGSYYSYDVLDYWGQGTTVTVSS
VL: DIQMTQSPSFLSASVGDRVTITCKASQNVGINVVWHQQKPGKAPKALIYSSSHRYSGVPSRFSGSGSGTEFTLTISSLQPEDFATYFCQQFKSYPLTFGQGTKLEIKR

The target in this experiment is T1, recombinant protein TCRVB 6-5. Nature of the experiment: SPR-type chip assay; TCRVB 6-5 captured on Biotin CAP Series S chip, construct as analyte, 1:1 binding model, 25C. As for the experimental part: TCRVB 6-5 at 5 ug/mL was immobilized on a Biotin CAP Series S Sensor Chip to 60 RU. A-H.52 was diluted to 50 nM and then serially diluted two fold Association was 120 seconds, dissociation was 300 seconds. This assay was run in 1×HBS-EP+ Buffer pH 7.4 and 25C. The data was fit using a 1:1 binding model. A-H.52 is a phage clones and is a monovalent scFv. A-H.52 has two mutations on CDRH1.
TCRVB 6-5 at 5 ug/mL was immobilized on a Biotin CAP Series S Sensor Chip to 60 RU. A-H.53 was diluted to 50 nM and then serially diluted two fold. Association was 120 seconds, dissociation was 300 seconds. This assay was run in 1×HBS-EP+ Buffer pH 7.4 and 25C. The data was fit using a 1:1 binding model. A-H.53 (phage clone) affinity is in the pM range (Table 17).
TCRVB 6-5 at 5 ug/mL was immobilized on a Biotin CAP Series S Sensor Chip to 60 RU. A-H.54 was diluted to 50 nM and then serially diluted two fold. Association was 120 seconds, dissociation was 300 seconds. This assay was run in 1×HBS-EP+ Buffer pH 7.4 and 25C. The data was fit using a 1:1 binding model.
For B1, the Kd – broadly, the concentration at which binding is half-saturated – came out at 1.76 nM.

B2: the Kd was found to be 0.165 nM.

In the case of B3, the Kd was determined as 2.22 nM. For the molecule B4, the Kd was found to be 35 nM.
